Test results taken from the nanobody polyreactivity screen of Harvey et al. (2022).

Test: yeast display, Sf9 membrane polyspecificity reagent, FACS + sequencing; frameworks hold sequencing errors
How it was run: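 A synthetic nanobody library was expressed on Saccharomyces cerevisiae BJ5465 by galactose induction for 36–48 hours. The library was stained for 1 hour at 4 °C with 10% biotinylated, detergent-solubilized Sf9 membrane reagent and enriched with streptavidin microbeads before FACS. Low and high (top ~1%) gates were set on anti-HA fluorescence for expression and streptavidin fluorescence for reagent binding, and each polyreactivity label reflects the gate of origin.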

Row | Sequence | polyreactivity (PSR sort gate)
1 | QVQLVESGGGLVQAGGSLRLSCAASRSNFQFYAMGWYRQAPGTERELVAVISTRGGSTYYADSVKGRFTISRDKAKNTVYLQMYSLKPEDTAVYYCAAKSVYRMGYWGQGTQVTVSS | high polyreactivity
2 | QVQLVESGGGLVQAGGSLRLSCDASGITVAGYAMGWYRHAPGKEWELVAAISRGGSTYYADSVKGRFTISRDNAKNTVYLQMNSLKPEDTAVYYCNTDDQQGYFTYTGWNYNYWGQGTQVSVSS | high polyreactivity
3 | QVQLVESGGGLVQAGGRLRLSCAASGSIFQYNAMGWSRQAPGKERELVAAISRSGGSTYYADSVKGRFTISRDNAKNTVYLQMNSLKPEDTAVYYCHAVLGYYSPYDYWGQGTQVTVSS | low polyreactivity
4 | QVQLVESGGGLVQAGGSLRLSCAASGNTFYGYTMGWYIQAPGKDRELVAAISGRGGSTTYADSVKGRFTISRDNAKNTVYLQMNSLNPEDTAVYYCAATYVYIRTRFYYWGQGTQVTVSS | high polyreactivity
5 | QVQLVESGGGLVQAGGSLRLSCAASGSIFKQNAMGWYRQAPGKERELVASIRASGDRTYYADSVKGRFTISRDNAKNPVYLQMNSLKPEDSAVYYCAARRVRTRGYNYWGQGTQVTVSS | high polyreactivity
6 | QVQLVESGGGLVQAGGSLRLSCAASGNIFYLYAMGCYRQAPGKEREFSTSYADSVKGRFTISRDNAKNTVYLQMNSLKPEDTAVYYCAAYKSRGPYYYLFDYWGQGTQVTVSS | low polyreactivity
7 | QVQHVDSVGGLVQAGRSLRLICAASGSTFTSYTKGWYRQAPLKERELVDRITRGGGSTYYADSVKGRFTISRDNAKNTVYLQMNSLKQEDTAVYYCAKHVVGSAYYSWGQGTQVTVSS | low polyreactivity
8 | QVQLVESGGGLVQAGGSLRLSCAASGRTFYYNTMGWYRQAPGKERELVATISRIGGSTYYADSVKGRFTISRDNAKNTVYLQMNSLKPEDTAVYYCAAYVAAYPTGYDYWGQGTQVTVSS | high polyreactivity
9 | QVQLVESGGGLLQAGGSLRLSCAASGFTVYRYAMGWYRPEPGKERELGAAITWSGGSTYYADSVKGRFTISRDNAKKSVYFQMNSLKPEDTAVYYCAKETAPSRLPYGYWGQGTQVNVSS | low polyreactivity
10 | QVQLVESGGGIVQAGGSLRLSCAASGRTFNFYAMGWYRQAPGKERELVAAIRKSGASTYYADSVKGRFTISRDNAKNTVYLQMNSLKPEDTAVYYCAADGQVSYALGFDYWGQGTQVTVSS | high polyreactivity
11 | QVQLVESGGGLVQAGYSLRLSFAASGITFRYYAMGWYRQATGKERELVAGITWSGPSTYYADSVKGRFTISRDNAKNTVYLQMNILKPEYTAVFYCAVDYGLYFTFDYWGQGTQVTVSS | low polyreactivity
12 | QVQLVESGGGLVQPGGSLRLSCAASGFTFYPYVMGWYRQAPGKERELVAPINSGGARTYYADSEKGRFTISRDNAKNTVYYQIIRLKPEDTAVYYCAARTVVGGRIYYYWGQGTQVTVSS | low polyreactivity
13 | HVQLVESGGGLVQAGGSLRLSCAASGFTFPIYTMGWYRQAPGKESELVAAISASGGRTYYADSVKGRFTISRDNAKNTVYFQMNSLNPEDTSVYFCAADGYRAPGNAYYYWGQGTQVTVSS | high polyreactivity
14 | QVQLVESGGGLVQSGGSLRLSCAASGSTFKYYAMGWYRQAPGKERELVAAISRSGGSTYYADSVKGRFTISRDNAKNTVYIQMNSLKPEDTAVYYCNAYYRYSFCELDKYGYWGQGTQVTVSS | high polyreactivity
15 | QVQLVESGGGLVQAGGSLRLSCAASGSTFWFNAMGWYRQAPGKERELVAAITYRGASTNYADSVKGRFTISRDNAKNTVYLQMNSLKPEDTAVYYCATRPTWRPVPDSDVSTYGYWGQGTQVTVSS | low polyreactivity
16 | QVQLVESGGGLVQAGGSLRLSCAASGSTFYVNTLGWYRQAPGKERELVAAISGSGTSTYYADSVKGRFTISRDNAKNTVYLQMNSLKPEDTAVYYCNKYQLVRTYGSYSYYYWGQGTQVTVSS | high polyreactivity
